# Results from paper PMC13499124.
# Key:
# Test in all cases: MST; labelled JIP3/4 fragment (Blue-NHS dye) constant at 20 nM, KIF5B fragment titrated 120 pM to 4 uM (up to 38.2 uM when needed); 50 mM Tris pH 8.0, 200 mM NaCl, 10 mM MgCl2, 0.05% Tween 20; room temperature; Monolith NT.115, premium capillaries, MST-on 0.5-1.5 s; 1:1 Kd fit; three replicates; the paper calls its affinities relative measurements
# [1] = biological target: JIP3-N^JIP4-RH1-lz3 chimera (JIP3 variant incorporating the N-terminus of JIP4) (not stated | mouse)
# [2] = biological target: JIP4-N^JIP3-RH1-lz3 chimera (JIP4 variant incorporating the N-terminus of JIP3) (mouse | not stated)
# JIP4-N-RH1-lz3-G40H-R41C = JIP4-N-RH1-lz3-G40H-R41C (UniProt O60271)
# Sequence of JIP4-N-RH1-lz3-G40H-R41C (O60271 whole entry G40H/R41C): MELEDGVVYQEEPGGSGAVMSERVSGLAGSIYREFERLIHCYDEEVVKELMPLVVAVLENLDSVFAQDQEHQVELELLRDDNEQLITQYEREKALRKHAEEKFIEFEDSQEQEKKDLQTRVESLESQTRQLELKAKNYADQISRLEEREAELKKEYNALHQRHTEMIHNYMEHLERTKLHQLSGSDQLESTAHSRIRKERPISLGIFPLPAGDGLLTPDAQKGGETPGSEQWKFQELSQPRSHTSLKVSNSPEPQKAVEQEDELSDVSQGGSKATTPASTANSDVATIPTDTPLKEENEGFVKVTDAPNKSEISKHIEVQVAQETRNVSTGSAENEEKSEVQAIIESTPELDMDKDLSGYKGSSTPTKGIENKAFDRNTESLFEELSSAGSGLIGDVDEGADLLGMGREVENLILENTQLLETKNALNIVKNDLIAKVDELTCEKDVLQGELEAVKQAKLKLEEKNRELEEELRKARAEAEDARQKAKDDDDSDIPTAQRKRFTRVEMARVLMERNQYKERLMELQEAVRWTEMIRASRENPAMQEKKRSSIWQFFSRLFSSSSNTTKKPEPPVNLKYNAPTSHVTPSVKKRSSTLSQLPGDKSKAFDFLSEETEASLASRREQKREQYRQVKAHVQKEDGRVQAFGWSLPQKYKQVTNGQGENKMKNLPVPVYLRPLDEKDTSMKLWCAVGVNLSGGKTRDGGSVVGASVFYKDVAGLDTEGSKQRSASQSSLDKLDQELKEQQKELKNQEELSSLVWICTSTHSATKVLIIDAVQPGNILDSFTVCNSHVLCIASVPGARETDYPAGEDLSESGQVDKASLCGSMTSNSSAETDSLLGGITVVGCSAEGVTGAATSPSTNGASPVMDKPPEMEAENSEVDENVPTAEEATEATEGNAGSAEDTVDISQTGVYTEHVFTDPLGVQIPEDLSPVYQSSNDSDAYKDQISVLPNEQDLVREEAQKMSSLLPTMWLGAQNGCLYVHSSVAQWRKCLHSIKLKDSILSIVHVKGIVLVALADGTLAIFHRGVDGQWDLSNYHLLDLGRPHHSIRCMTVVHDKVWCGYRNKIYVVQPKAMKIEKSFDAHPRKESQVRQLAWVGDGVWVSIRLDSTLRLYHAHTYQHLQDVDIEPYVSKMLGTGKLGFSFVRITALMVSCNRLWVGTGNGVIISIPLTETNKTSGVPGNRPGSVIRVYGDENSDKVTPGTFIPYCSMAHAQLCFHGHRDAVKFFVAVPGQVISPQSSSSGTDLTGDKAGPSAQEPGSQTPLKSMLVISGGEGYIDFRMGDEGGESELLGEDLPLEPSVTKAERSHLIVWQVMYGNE
# Sequence of KIF5B-CC3b-CC4-dt fragment (P33176 771-963): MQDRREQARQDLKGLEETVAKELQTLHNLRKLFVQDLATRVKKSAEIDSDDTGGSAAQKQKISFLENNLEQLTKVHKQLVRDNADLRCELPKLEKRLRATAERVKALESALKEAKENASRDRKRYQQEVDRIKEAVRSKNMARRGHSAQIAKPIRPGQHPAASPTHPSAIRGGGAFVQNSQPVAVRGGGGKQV
substance,measurement,setting,value
KIF5B-CC3b-CC4-dt fragment (from UniProt P33176 771-963) (domain or fragment),Kd,[1],29.6 nM
same,Kd,[2],246 nM
same,Kd,JIP4-N-RH1-lz3-G40H-R41C,132 nM
